Assay results reported in the DeepSol protein solubility set.

assay: soluble on expression in E. coli; label from the status in PepcDB or PDB records

Row | Sequence | soluble on expression in E. coli
1 | MGSDKIHHHHHHMCSVSGVLILNPKNFEKVELKLASILKKAEDRGRDSFGIVVIQKDGTVKVRKSIGKPSEKEELLYGILDEDSRVVIANNRAEPTTEYVRQKTEDDIQPFIGDRYIVTHNGIIANDLELEKKYELKRKTKIDSAILPLLLDKTWDGNLEALKGILEQIKGSFALVIGDKKNPDRIFLAQNFKPLYMAYDHSLESLFFTSLDEYFDAKPFDPVNITKLEPYSVVMVTSNKLITTLPIMEKRKKYRVLVVASGGLDSTVAATKLLREGHEVTLIHFNYHHKAEEKEREAVRKIAEYLQIPLLEINTDLFKIIGHATLIKGGGEIVKDRKGEEGAEFAHEWVPARNLIFFSVSLAIAEAYGYDAIASGINLEEAGAYPDNEMEFIRMLNKLSPYATGPNKRIEILMPVGNLVKHEIVKLGYEIGAPLHLTWSCYEGGQKHCGKCGPCYMRKMAFRINGLKDPVEYDEE | not soluble
2 | MGSDKIHHHHHHMDAVQLKSFVAVAHEGNLTQAAKRLFLSQPAVSAQIKALEEYVGTPLFRRTGKGMVLTRAGEILLPEAESLLQYKHKLEHFAKTLAGDYSEETSLGIIHPIDSAKLVALTDNIGQTAPKTRLHIQYGMSGEILSRIQHKTLHGGFILGNAAQRGIRSVFLQNLTYALICPQSQYPHLTRSLPQSLQECVWIEMSGVSGSRKHLHQFWRSNRLSPKKQILCDYPQTIIDLVAGGIGVAMVPGNKAEAAAKEGAGVAIIESCRHSMPLNFIYAEEYEDNPHVSLLLECIEKVWGVQAVQPPVVSDN | not soluble
3 | MGSDKIHHHHHHMDDLMGYVIGETSNTELNFLAKHMPEIGSYVSINYCDLEILGMVESVNQGCKIFEDVYNVKDFEKLKDFENNDSYYTIGKIKILGDVKNMQIPRIPPKPGTEVYDASEKILGEIFSKGTIEIGNLISADSKVKLDVNKLCSRHLAILAITGMGKSNTVSVLLEELNNIHATVLVFDMHREYVEIEAKNSTIRRNIIRPKINVYNMSYDALMSLAGVDPQATVQRAMGRRAMKKIKESKKEVDFNTVDEYINSIINELNYYMGMDEFKSKVDSILTLIMRFEDLMTFKDKITAINYNPIQDIKENYVNIVDISELDESSTDLIISYFTGEILKDRKKVLWDTKVAKPIFIIYEEAHLIVPQNRPTKSKIPISKIAREGRKFGVGICLVSQRPKTLDQESLSQCNNFIISKLIEPSDQKHVQHASENLSEDLLNQLPGLNVGEAVIIGPCLKIPAMVKIKRFEGEYGGEDVKFDELWTTEKEKNIPEFIESNELFNDDL | not soluble
4 | MGSDKIHHHHHHMDEETRRAVATADEALPTSDALPDAIDTGRVVFGFDGYLDRVREVVADRIDPESHERLATLESFGDRIDRSVAADSSLSFEWLQQGSRTGGHTSHLARAFGGWSFDPVMVGMYGDPVHDAFETEFGEYELHSLGEPGVTDAVEFDDGKLMLTEIGDTMSLDWAELDTAFGHDRLAEKLDGASLLGTGYWSETPDLPTVFDGLRTLWDGIDDPPETVLVDPGDVRKLDADRLRAGREAIGRLDEVTDVVVTSNRAETGVLADAYAGDAERSFADDAEAVFEALEPTWFVGHGVEQSVVVTAAGTDSVAVPSVSDPELTTSSGDHFNAGLGLARIADLSPAAAVVVGNAVAGYFVRTADQPSLADVRAFVDEYLEKF | not soluble
5 | MGSDKIHHHHHHMDELYIMNPWWRDPEIINTDRHISMFENSTFKYFPENLFKKIPLNKPGIYTIRGPRQVGKTTFLKLYIRKLLRDGVKPSNIFFFTCDAVKDRFELIETMKAYFQIFERKAGETRYLFIDEITAVEDWQKSIKYLVDIGLLENSLLILTGSSAFDLKRSSERLPGRKGYGEDLVYLPLTFGEFLESLGISVERMSVDDIFLKSEEELRILYLKNSFLKEYFVKYLNTGGFPKVIDVFLKEGKIDEITKGVFRDFILGDAEKYLGSRIKVIEIFKKLPDIVGQRFSWNSLVDIFSGAIESVDTIQKYFEYLGYSFILMNVFFVDISRKTVRLKKQKKTYPIDRVVVDIIEEISGKQIKLPQIVEMLTLRHLMGNGKTLPNGMNLYDGPFFWYSDRGNEVDFVFEHGDSLIPVEINFQNNIHRSDYAGMKKVFKKGIVITQDAIFRDENIVAVPAWLFFAVFEGNE | not soluble
6 | MGSDKIHHHHHHMDFHTGKWLCKQYNLNSFTKVSLLHGGENQTYMFESDKNKFVVRQYREGRYTAEQIEAEIHWLIAIQKQMLVPEVVVNKDGDWVTPVMKDEGSIQYFVVFRFINGNEIIEPKDKDYEKLGSFMRMFHEKTNGVLKSVPQTWRGYERPIYSEKKMIHEPLQCLLNTSFLSYEDKNKCLRIAERIQELTNSIQLREKQFVHGDMHFGNILVDKEDWYLLDFDECGFGYKEFDIGVPRLHLIASGQLEDAWGNFMMGYGENISESAIRLGAASRIFYMAGKIPLRLDIEPIKKNPDHFIRRYIQYAEEELCGETIV | not soluble
7 | MGSDKIHHHHHHMDFVAVAVHTEYRCNQGWETRAECHWFVSTIRAIMTATQSISLVGGEGDELLMQRYASGDIQAFDTLYRRHKGGLYRYFLRQIGDSQLAEDLYQETWGRVIKAAPAYEISAKFTTWLYRIAHNLLIDHVRAVKPLNEADTLDEEGMALTDSMTPVRSHEHDLKVQALKHCVGLLPQVQKEAFLLSSEMGFTALMISEIASVSLEATKSRIRYAYQSLKTCVAKRLGEDSDER | not soluble
8 | MGSDKIHHHHHHMDFVDVPAVTRDATILSLRDVSRKLVRELGFMRSTLANSDLAPSAVHAVLEIGMKPGITAKDLATILRLDKSNTSRQIARLEAAGFVERRVSSDDARSSELYLSAEGKSLRARIDRFATSQVSNALRHMAPADQQALLRSLALYANALAQDNAGNAPPATPEAVQIIEGYQPGCIGDIASLHGRFYAAHWGFGAFFEKRVATELAAFAGSLPVDGKALWLYVENGRSLASLAIDGDKTTGIAHLRWFIVDESLHGSGIGRELMARAMRFVETQGFRETHLWTFKGLEAARHLYESHGFRLSEEFEGSQWGTTVTEQRFNRV | not soluble
9 | MGSDKIHHHHHHMDIKNKIKSIFLPEKNDYLDDEEFEYDIENNEEDLKEDNKVHLNDLSRVKYDYRELKDIENQTEEMCLLAVKQDGTIIEFVKDKTYKVCMEAVKQTYKSLKYITNQNEDICIEAVKQNYRALYYINNKTENVLIEAIKNASTYDVMEVFKFVEEQTEDVCLAFIERASKNDVAEILKGIKEQTPAICLEAVKKDGKSLAYVKEQSNSICLEAVKENYSALSCVKEQTEEICIEAVKQNDFALYYVNEQTEKICMEAVKRSYMALQYVNKQTEEICLEAVRIDGRALQYVKEQTEEICLESVRQNGKVLQYVKKQTENICIEAVRGSFEELEIKEILSYVKIPTERIFVEAVKQNGKILKYVENQTELICLEAVRENYNALAYVKEQTEKICLEAVNQSYEALKYVKEQTEEVCLKAVKQDYRMLKYVNNQTEKICLEAVKQNYRALEFVDNQTEKVCLEAVKQNRKALQYVKQKQS | not soluble
10 | MGSDKIHHHHHHMDIRSLKMYLHLCDSLHFAKTAEQSHVSPSTLSRALQRLEDEVGSKLFDRDNRSVTITHAGVEFKRFAEQTLSEWTQLRSRIDPSQQFLRGNLNLYCSVTAAYSHLPALLDRFRREHPHVDINLNTGDPANAVNQIQKNRADIAIIALPEAFPSSLHFTPIDKVPISVIAPTIQCQVQQWVSQAKIDWAKLPYIVPDHGPGRKRIDLWFKQMGIKPNIYAQVSGQEAIVSMVALGCGVGISPEAVIHNSPVRDRIQTLASPIPIPPFELGCCCKEKRTNDPIIRAFLDII | not soluble
11 | MGSDKIHHHHHHMDIRVLRYFVVIAQEQNISRAATLLNVSQPALSRQIADLEDELGTKLFTRAHRHIQLTQEGHYLLERALQIIGLVDKTTYNLQKQDVVSGTLDIGAGESVGIMPVMEAAQQIMRQYPDVRVNLRSADAEPILADLDAGILEFGIIMGNRPLNNYNTLVLPAKNHWCAIMRADEPLAQQKEIRPIDLVGRPLITSRQAYKHGLFQKWSNTLYDQLNFVGTFNLAFNGSLLVKTGAAIALLYDQLVDVSPTSGLVARPLNPDMSEANTLIWSKNRNLPNLNRLFLDTLQKNLAQQGGSDA | not soluble
12 | MGSDKIHHHHHHMDKAFPSGLAVGIFDHLDEDGPDIARQYEDRLMLAEACDHLGFYAYHLAEHHCTPHGRGPSPNLFLSSVAQRTRRLRVGPLVMLLALYHPLRAFEEICMLDQLSGGRLELGIGRGSLPIELGYFGIGSDAAPNHYAEASEILINALKGGTLSYQGRHFELNSVPLTLRTHQRPHPPTWIATNRPESAVWAAANGVNIACVGPSSSVRRITDAFRREHTSEADDQTPFLGLLRMVVIGRSETDARSLAAPAYERWLKSFKFLYDLNGMPTPPNLPLTFDAAIEKELCVVGTAASAGHALLEQLEAAGANYLLCQPAFGNLSLDASLYTATAIQSAIMARVG | not soluble
